Measurements: patent US20230399394A1 (SUNSHINE GUOJIAN PHARMACEUTICAL SHANGHAI, published 2023)

T1: Pep2 (human, N-terminal biotin)
T1 construct: Synthetic 20-mer of human IL-33
T1 peptide: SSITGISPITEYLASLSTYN

T2: Pep3 (human, N-terminal biotin)
T2 construct: Synthetic 20-mer of human IL-33
T2 peptide: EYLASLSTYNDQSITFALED

T3: Pep4 (human, N-terminal biotin)
T3 construct: Synthetic 20-mer of human IL-33
T3 peptide: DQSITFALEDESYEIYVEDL

T4: Pep6 (human, N-terminal biotin)
T4 construct: Synthetic 20-mer of human IL-33
T4 peptide: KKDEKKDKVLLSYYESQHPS

T5: Pep8 (human, N-terminal biotin)
T5 construct: Synthetic 20-mer of human IL-33
T5 peptide: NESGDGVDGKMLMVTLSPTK

T6: Pep11 (human, N-terminal biotin)
T6 construct: Synthetic 20-mer of human IL-33
T6 peptide: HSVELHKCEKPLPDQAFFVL

T7: Pep12 (human, N-terminal biotin)
T7 construct: Synthetic 20-mer of human IL-33
T7 peptide: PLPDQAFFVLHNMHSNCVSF

T8: Pep15 (human, N-terminal biotin)
T8 construct: Synthetic 20-mer of human IL-33
T8 peptide: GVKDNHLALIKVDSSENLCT

T9: Pep16 (human, N-terminal biotin)
T9 construct: Synthetic 20-mer of human IL-33
T9 peptide: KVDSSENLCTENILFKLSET

T10: IL-33 mutant protein D65A (human, UniProt O95760 112-270)
T10 construct: Prokaryotic expression
T10 chain: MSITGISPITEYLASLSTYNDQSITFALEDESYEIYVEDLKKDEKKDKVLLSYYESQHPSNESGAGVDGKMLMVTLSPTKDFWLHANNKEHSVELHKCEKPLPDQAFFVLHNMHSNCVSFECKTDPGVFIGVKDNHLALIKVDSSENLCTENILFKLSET

T11: IL-33 mutant protein S52A (human, UniProt O95760 112-270)
T11 construct: Prokaryotic expression
T11 chain: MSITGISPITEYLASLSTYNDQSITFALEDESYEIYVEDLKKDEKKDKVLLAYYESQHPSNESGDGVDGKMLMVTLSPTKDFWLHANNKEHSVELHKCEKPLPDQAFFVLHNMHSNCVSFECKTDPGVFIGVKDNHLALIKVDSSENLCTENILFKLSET

T12: IL-33 mutant protein K46A (human, UniProt O95760 112-270)
T12 construct: Prokaryotic expression
T12 chain: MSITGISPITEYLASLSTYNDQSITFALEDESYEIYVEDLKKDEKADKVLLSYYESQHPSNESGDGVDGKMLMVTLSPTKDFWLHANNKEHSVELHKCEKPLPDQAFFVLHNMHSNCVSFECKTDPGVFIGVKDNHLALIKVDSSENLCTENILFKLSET

T13: IL-33 mutant protein L51A (human, UniProt O95760 112-270)
T13 construct: Prokaryotic expression
T13 chain: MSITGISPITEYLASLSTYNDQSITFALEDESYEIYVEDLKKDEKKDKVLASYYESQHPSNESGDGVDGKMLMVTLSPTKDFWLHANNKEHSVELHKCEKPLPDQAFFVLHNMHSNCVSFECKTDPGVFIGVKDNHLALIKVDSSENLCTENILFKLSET


How the values were obtained:
[1] = molecular target: T1, Pep2; experiment: ELISA, biotinylated peptide on streptavidin plate, antibody 10 µg/mL, well 1
Procedure: (§1) To determine the binding activity of antibody to each polypeptide fragment, the ELISA plate was pre-coated by biotin-avidin (SA) which was diluted in coating solution (50 mM carbonate coating buffer, pH 9.6) to 2 μg/ml at 4° C. overnight. The plate was washed with PBST for 3 times, and then blocked with 2% BSA prepared in PBS at room temperature for 2 h with 200 μL/well. The plate was washed once with PBST, and 864F3 and 874F7 with final concentrations of 10 μg/mL were added at 100 μL/well, respectively, and the plate was incubated at room temperature for 1 h. The plate was washed with PBST for 3 times, and the goat anti-mouse IgG labeled by HRP was added and placed at 37° C. for 30 min. After washing the plate with PBST for 3 times, the plate was patted on the absorbent paper to remove residual droplets as far as possible. 100 μl TMB developing solution was added to each well, and the plate was placed at room temperature (20±5° C.) for 5 minutes away from light; 50 μl 2M H₂SO₄ terminating solution was added to each well to terminate the substrate reaction. OD values were read at 450 nm on the microplate reader to analyze the binding ability of the antibody to each polypeptide fragment. The experimental results are shown in […]

[2] = molecular target: T2, Pep3; experiment: as above
Procedure: as §1

[3] = molecular target: T3, Pep4; experiment: as above
Procedure: as §1

[4] = molecular target: T4, Pep6; experiment: as above
Procedure: as §1

[5] = molecular target: T5, Pep8; experiment: as above
Procedure: as §1

[6] = molecular target: T6, Pep11; experiment: as above
Procedure: as §1

[7] = molecular target: T7, Pep12; experiment: as above
Procedure: as §1

[8] = molecular target: T8, Pep15; experiment: as above
Procedure: as §1

[9] = molecular target: T9, Pep16; experiment: as above
Procedure: as §1

[10] = molecular target: T10, IL-33 mutant protein D65A; experiment: ELISA as Example 9; row D65A
Procedure: (§2) SA protein was diluted to 2 μg/mL to coat ELISA plate at 100 μL/well overnight at 4° C. The plate was washed with PBST (PBS containing 0.05% Tween20) for 3 times, and blocked with 2% BSA prepared in PBS at 200 μL/well, at room temperature for 2 h. After the plate was washed twice with PBST, IL-33-his-biotin protein was diluted to 1 μg/mL with 1% BSA prepared in PBST, and was added to ELISA plate at 100 μL/well. The plate was incubated at room temperature for 1 h, and each monoclonal antibody was diluted with 1% BSA prepared in PBST in a 3-fold gradient. The highest concentration of antibody was 10 μg/mL, and the antibody was diluted for 12 gradients. Each diluted monoclonal antibody was added to ELISA wells with 100 μL/well, and the plate was incubated at room temperature for 1 h. Each sample was added to duplicate wells in parallel. The plate was washed with PBST for 3 times, and HRP-anti human IgG Fc secondary antibody prepared with PBST was diluted at an appropriate ratio, and was added to ELISA wells at 100 μL/well. […] Each reaction solution was shaken uniformly and OD450 nm was read on a microplate reader. The data was analyzed and EC₅₀ was calculated.
(§3) Subsequently, according to the experimental method of Example 9, the affinity of the above mutant proteins to 874F7-Hu1 was determined, and IL-33 proteins (WT-1, WT-2, WT-3, and WT-4) without any mutation were set as controls.

[11] = molecular target: T11, IL-33 mutant protein S52A; experiment: ELISA as Example 9; row S52A
Procedure: as §2, §3

[12] = molecular target: T12, IL-33 mutant protein K46A; experiment: ELISA as Example 9; row K46A against WT-1
Procedure: as §2, §3

[13] = molecular target: T13, IL-33 mutant protein L51A; experiment: ELISA as Example 9; row L51A against WT-2
Procedure: as §2, §3

OD450 [1] [OD450] | OD450 [2] [OD450] | OD450 [3] [OD450] | OD450 [4] [OD450] | OD450 [5] [OD450] | OD450 [6] [OD450] | OD450 [7] [OD450] | OD450 [8] [OD450] | OD450 [9] [OD450] | EC50 [10] [nM] | EC50 [11] [nM] | Affinity decline ratio [12] [fold] | Affinity decline ratio [13] [fold] | Binder
0.056 | 0.053 | 0.05 | 1.04 | 0.053 | 0.056 | 0.056 | 0.055 | 0.049 | – | – | – | – | 874F7 (antibody, V domains shown, Murine hybridoma antibody purified on Protein G; also called murine antibody 874F7) VH: QVQLKESGPGLVAPSHSLSITCNVSGFSLSKYGVHWIRQIPGRGLDWLGVLRAGGSTGYNSALMSRLSISKDSSKSQVFLKMNDLRTDDTAVYFCVRDHYYYSSYGGFVYWGQGTLVTVSA VL: DIQMTQSPASQSASLGESVTITCLASQTIGAWLAWYRQQPGKSPQLLIYAATRLADGVPSRFSGSGSGTEFSFKINNLQAEDFVSYYCQQLDSSPYTFGGGTRLEM
– | – | – | – | – | – | – | – | – | 35.3 | 1.96 | 1 | 6.8 | 874F7-Hu1 (antibody, human IgG4 S228P, kappa, also called 874F7-Hul; humanized antibody 874F7-Hu1) heavy: not shown light: DIQMTQSPSSVSASVGDRVTITCLASQTIGAWLAWYQQKPGKSPKLLIYAATRLADGVPSRFSGSGSGTDFTLTISSLQPEDFATYYCQQLDSSPYTFGQGTKVEIKRTVAAPSVFIFPPSDEQLKSGTASVVCLLNNFYPREAKVQWKVDNALQSGNSQESVTEQDSKDSTYSLSSTLTLSKADYEKHKVYACEVTHQGLSSPVTKSFNRGEC
